In patent publication US20080166698A1 (Genentech, published 2008) one finds Kd, koff and kon data, which are given here for one molecule.

For this experiment, the target named is T1, recombinant human DAF (human, UniProt P08174 35-353, limits assumed).
T1 construct: also called decay accelerating factor; CD55
T1 sequence (looked up): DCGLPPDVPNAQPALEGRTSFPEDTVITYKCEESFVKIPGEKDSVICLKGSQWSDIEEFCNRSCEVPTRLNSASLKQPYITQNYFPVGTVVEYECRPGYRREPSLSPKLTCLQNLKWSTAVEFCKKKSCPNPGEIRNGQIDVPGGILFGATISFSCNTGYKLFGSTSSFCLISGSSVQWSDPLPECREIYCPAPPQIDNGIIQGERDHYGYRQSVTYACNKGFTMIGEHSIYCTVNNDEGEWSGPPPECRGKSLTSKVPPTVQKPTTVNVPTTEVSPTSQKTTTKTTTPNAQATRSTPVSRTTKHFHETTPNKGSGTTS
Kind of experiment: SPR (BIACORE 1000), recombinant human DAF on a CM-5 chip, LU30 scFv injected. How it is done:
Affinity Measurements. Kinetic measurements were made by surface plasmon resonance using a BIACORE 1000™ Biosensor (Biacore, AB Uppsala, Sweden). CM-5 chips were functionalized with 350 response units recombinant human DAF in 10 mM sodium acetate (pH 4.6) or 8,000 response units bovine serum albumin as a negative control. The DAF-derivatized chip was saturated with LU30 scFv (25-100 nM) by injecting this fragment at 10 :l/min in PBS containing 0.5% (w/v) bovine serum albumin and 0.05% (v/v) TWEEN 20™. The resultant sensorgrams were analyzed using BIAEVALUATION™ software 3.0.
(Surface plasmon resonance follows binding to a sensor surface in real time, without labels.)

B1: LU30 scFv (scFv, V domains shown)
VH: QVKLQESGGGLVQPGGSLKLSCAASGFTFSGYGMSWIRQTPDKRLEWVATINSGGSYTYYSDSVKGRFTISRDNVKNTLYLQMSSLKSEDTAMYYCARRNGTLYYYLMDYWGRGTLVTVSS
VL: QSVLTQPPSASGSPGQSVTISCTGTSSDVGGYNYVSWYQQHPGKAPKFMIYDVSKRPSGVSNRFSGSKSGNTASLTISGVQAEDEADYYCSSYTSASTVIFGGGTKLTVL
notes: Human scFv from a naive phage library, secreted from E. coli and purified through its His tag; also called clone LU30; LU30 scFv fragment; not shown: scFv linker between the domains, domain order, and the His tag
What is called Kd is the free concentration of one partner at which half of the binding sites on the other are occupied at equilibrium, for simple one-to-one binding. Usually koff stands for a measure of how fast the partners let go of each other. Usually kon stands for the second-order rate constant of association. As for B1, the Kd turned out to be 13 nM, the koff was determined as 0.0045 s⁻¹ and the kon came to 340000 M⁻¹ s⁻¹.
